Marks after values point to notes of the source that are not given here.
Legend:
mannanase = experiment: Effect of metal ions and chemicals on mannanase activity; format: biochemical, Cellulosimicrobium sp. HY-13; conditions: for increase of catalytic activity of the mannanase / effect on the enzyme activity: pH 6.0, 50° C.
[1] = Analysis of degradation product (HPLC, LC-MS/MS); format: biochemical; conditions: substrate Ivory nut mannan; LC area %
Description: […] HPLC (high performance liquid chromatography) was performed by using Finnigan Surveyor™ Modular HPLC systems (Thermo Electron Co.) equipped with Asahipak NH2P-50 2D column (5 μm, 2.0×150 mm, Shodex) ran by Xcalibur software (version 1.3 SP2, Thermo Electron Co.). Elution buffer A (0.05% pomalus acid/sterilized water) and elution buffer B (acetonitrile and methanol (7:3) containing 0.05% pomalus acid) were used as moving phases. LC-MS/MS (liquid chromatography/tandem mass spectrometry) was performed by using Finnigan LCQ Advantage MAX ion trap mass spectrometer (Thermo Electron Co.).

[2] = Specific activity of mannanase (DNS reducing sugar assay); format: biochemical; conditions: pH 6.0, 50° C., 15 minutes
Description: To compare the mannanase activity to different matrixes, locust bean gum, ivory nut mannan and guar gum were used as matrixes and the activity of the purified mannanase to those matrixes were investigated.
The activity of β-1,4-mannanase was investigated by measuring the reduced amount of glucose isolated from locust bean gum using 3,5-dinitrosalicylic acid (DNS). At this time, D-mannose was used as a standard material. 0.5 Ml of a standard mixture composed of 0.5% locust bean gum was mixed with 0.05 Ml of an enzyme aqueous solution, followed by inducing biodegradation reaction in 50 mM sodium phosphate buffer (pH 6.0) at 50° C. for 15 minutes. The activity of the recombinated mannanase (1 IU) to the mannan substrate was defined as the amount of the protein necessary for the secretion of 1 μmol reducing sugar under the standard analysis condition. Chromogenic PNP-sugar derivative was used to measure another degrading activity of the said recombinated enzyme. The enzyme activity of the recombinated mannanase to the chromogenic substrate was measured under the same conditions as set for the analysis of β-1,4-mannanase activity. The activity of the recombinated mannanase (1 IU) to the PNP-sugar derivative was defined as the amount of the protein necessary for the production of 1 μmol PNP under the standard analysis condition.

[3] = Analysis of degradation product (HPLC, LC-MS/MS); format: biochemical; conditions: 1 μg recombinant mannanase, pH 6.0, 30° C., 12 hours, LC area %
Description: Mannooligomer (M2˜M5, 1 mg/100 μl each) and locust bean gum (1.4 mg/100 μl) were reacted in 50 mM sodium phosphate buffer (pH 6.0) containing 1 μg of the recombinant mannanase at 30° C. for 12 hours, followed by investigation of the hydrolysate. HPLC (high performance liquid chromatography) was performed by using Finnigan Surveyor™ Modular HPLC systems (Thermo Electron Co.) equipped with Asahipak NH2P-50 2D column (5 μm, 2.0×150 mm, Shodex) ran by Xcalibur software (version 1.3 SP2, Thermo Electron Co.). Elution buffer A (0.05% pomalus acid/sterilized water) and elution buffer B (acetonitrile and methanol (7:3) containing 0.05% pomalus acid) were used as moving phases. LC-MS/MS (liquid chromatography/tandem mass spectrometry) was performed by using Finnigan LCQ Advantage MAX ion trap mass spectrometer (Thermo Electron Co.).

[4] = metal ions 1 mM, 50 mM sodium phosphate buffer (pH 6.0), 50° C., 10 minutes, None = 100.0
[5] = metal ions 1 mM, chemicals 5 mM, 10 minutes
[6] = chemicals 5 mM, 50 mM sodium phosphate buffer (pH 6.0), 50° C., 10 minutes, None = 100.0
[7] = detergent 0.5%, 50 mM sodium phosphate buffer (pH 6.0), 50° C., 10 minutes, None = 100.0

For [Ba+2].[Cl-].[Cl-] [BaCl2], which “Relative activity (%)” value (mannanase; [4]) is on record?
Its value is 118.5%.

And the “increase of catalytic activity of the mannanase” value (mannanase; metal ions 1 mM, 10 minutes)?
Its value is “approximately 1.2 fold”.

For [Ca+2].[Cl-].[Cl-] [CaCl2], which “Relative activity (%)” value (mannanase; [4]) is on record?
Its value is 146.9%.

What about the “increase of catalytic activity of the mannanase” value (mannanase; metal ions 1 mM, 10 minutes) of the same molecule?
Its value is “at least 1.4 fold”.

With [Cl-].[Cl-].[Co+2] [CoCl2] as the molecule, how does the “Relative activity (%)” value (mannanase; pH 6) read?
Its value is 111.9%.

Which “Relative activity (%)” value (mannanase; [4]) does the source give for [Cl][Cu][Cl] [CuCl2] here?
The value was 16.7%.

With O=C(O)CN(CCN(CC(=O)O)CC(=O)O)CC(=O)O [EDTA] as the molecule, how does the “Relative activity (%)” value (mannanase; pH 6) read?
The value was 19.0%.

For O=S(=O)([O-])[O-].[Fe+2] [FeSO4], which “Relative activity (%)” value (mannanase; [4]) is on record?
The value was 42.2%.

With [Cl][Hg][Cl] [HgCl2] as the molecule, how does the “effect on the enzyme activity” value (mannanase; [5]) read?
Its value is “inactivated”.

What about the “Relative activity (%)” value (mannanase; [4]) of the same molecule?
The value was 0%.

For O=S(=O)([O-])[O-].[Mg+2] [MgSO4], which “effect on the enzyme activity” value (mannanase; [5]) is on record?
The value was “no effect”.

And the “Relative activity (%)” value (mannanase; [4])?
The value was 99.9%.

What does the source list for [Cl][Mn][Cl] [MnCl2]?
Relative activity (%) (mannanase; [4]): 125.2%; increase of catalytic activity of the mannanase (mannanase; metal ions 1 mM, 10 minutes): approximately 1.2 fold

With O=C1CCC(=O)N1Br [N-Bromosuccinimide] as the molecule, how does the “Relative activity (%)” value (mannanase; [6]) read?
Its value is 0%.

What about the “effect on the enzyme activity” value (mannanase; [5]) of the same molecule?
Its value is “inactivated”.

For CCN1C(=O)C=CC1=O [N-Ethylmaleimide], which “Relative activity (%)” value (mannanase; [6]) is on record?
The value was 121.4%.

Which “Relative activity (%)” value (mannanase; [4]) does the source give for O=S(=O)([O-])[O-].[Ni+2] [NiSO4] here?
Its value is 67.1%.

Which “Relative activity (%)” value (mannanase; [6]) does the source give for NC(=O)CI [Odoacetamide] here?
The value was 113.3%.

Which “effect on the enzyme activity” value (mannanase; [5]) does the source give for [Cl][Sn][Cl] [SnCl2] here?
Its value is “no effect”.

What about the “Relative activity (%)” value (mannanase; [4]) of the same molecule?
The value was 103.7%.

Which “Relative activity (%)” value (mannanase; [7]) does the source give for CCCCCCCC/C=C\CCCCCCCC(=O)OCCOCC(OCCO)C1OCC(OCCO)C1OCCO (stereo not drawn) [Tween 80] here?
Its value is 103.5%.

For O=S(=O)([O-])[O-].[Zn+2] [ZnSO4], which “Relative activity (%)” value (mannanase; [4]) is on record?
Its value is 47.4%.

With Triton X-100 as the molecule, how does the “Relative activity (%)” value (mannanase; [7]) read?
The value was 98.9%.

B1: rManH: Recombinant GH5 β-1,4-mannanase of Cellulosimicrobium sp. HY-13 produced in E. coli; SEQ. ID. NO: 1; approximately 44 kDa (protein)
chain: MRRLFAIVLGAVLALLAVPALAQGASVASDGFSVQDGRIYDANGNRFVPVGVNHAHAWYPSQTQSFADIRAAGANTVRVVLSGGRYGTSSAADVSAVVERCKQNQLVCILENHDTTGYGEDGSARSLASAAQYWTSIASVLRGQERYVMINIGNEPFGNSGFQSWTTDTIAAIRTLRAAGLDHTLVVDAPNWGQDWSFTMRDNAPTVAAADGNVVFSVHMYGVFDTGAEVRAYLDSFTSRGLPIMVGEFGDNHSDGNPDEATIMSYTRSQGIGMLGWSWSGNGGGVEYLDMVNGFSASSLTPWGQRFVHGADGLRARNAPAASVYGGDGGDGDGGAGTAPNGYPYCASASSDPDGDGWGWESSASCVVRGSSADTGSGGGSGSGSTAPNGYPYCASASSDPDGDGWGWESSASCVVRGSSADR
modifications: cellulosimicrobium
notes: Recombinant GH5 β-1,4-mannanase of Cellulosimicrobium sp; HY-13 produced in E. coli; ID; NO: 1; approximately 44 kDa
Which “Composition (%) of products formed by hydrolysis reaction: M1” value (“Composition (%) of products formed … M1” below) [1] does the source give for B1 here?
Its value is 3.3%.

What about the “Composition (%) of products formed by hydrolysis reaction: M2” value (“Composition (%) of products formed … M2” for short) [1] of the same molecule?
Its value is 17.5%.

And the “Composition (%) of products formed by hydrolysis reaction: M3” value (shortened to “Composition (%) of products formed … M3”) [1]?
The value was 13.9%.

And the “Composition (%) of products formed by hydrolysis reaction: M4” value (shortened to “Composition (%) of products formed … M4”) [1]?
Its value is 25.2%.

What about the “Composition (%) of products formed by hydrolysis reaction: M5” value (shortened to “Composition (%) of products formed … M5”) [1] of the same molecule?
Its value is 19.7%.

What about the “Composition (%) of products formed by hydrolysis reaction: M6” value (shortened to “Composition (%) of products formed … M6”) [1] of the same molecule?
The value was 12.9%.

What about the “Composition (%) of products formed by hydrolysis reaction: M7” value (“Composition (%) of products formed … M7” for short) [1] of the same molecule?
Its value is 7.5%.

What about the “Composition (%) of products formed by hydrolysis reaction: M8” value [1] of the same molecule?
Its value is 2.9%.

What about the Specific activity ([2]; substrate Guar gum) of the same molecule?
Its Specific activity is 967 ± 18 IU mg^−1.

What about the Specific activity ([2]; substrate Insoluble ivory nut mannan) of the same molecule?
Its Specific activity is 14,711 ± 183 IU mg^−1.

And the Specific activity ([2]; substrate Locust bean gum)?
The Specific activity was 8,498 ± 105 IU mg^−1.

And the Specific activity ([2]; toward insoluble ivory nut mannan)?
Its Specific activity is 14,711^c IU/mg.

And the Specific activity ([2]; toward locust bean gum)?
Its Specific activity is 8,498^d IU/mg.

What about the “Composition (%) of products formed … M1” value ([3]; substrate Locust bean gum) of the same molecule?
Its value is 1.1%.

And the “Composition (%) of products formed … M2” value ([3]; substrate Locust bean gum)?
The value was 6.4%.

What about the “Composition (%) of products formed … M3” value ([3]; substrate Locust bean gum) of the same molecule?
Its value is 1.5%.

And the “Composition (%) of products formed … M4” value ([3]; substrate Locust bean gum)?
Its value is 7.4%.

What about the “Composition (%) of products formed … M5” value ([3]; substrate Locust bean gum) of the same molecule?
Its value is 44.2%.

And the “Composition (%) of products formed … M6” value ([3]; substrate Locust bean gum)?
Its value is 16.1%.

What about the “Composition (%) of products formed … M7” value ([3]; substrate Locust bean gum) of the same molecule?
The value was 21.4%.

What about the “Composition (%) of products formed by hydrolysis reaction: M8” value ([3]; substrate Locust bean gum) of the same molecule?
The value was 1.9%.

What about the “Composition (%) of products formed … M2” value ([3]; substrate M2) of the same molecule?
Its value is 100.0%.

What about the “Composition (%) of products formed … M1” value ([3]; substrate M3) of the same molecule?
Its value is 3.5%.

And the “Composition (%) of products formed … M2” value ([3]; substrate M3)?
The value was 60.1%.

What about the “Composition (%) of products formed … M3” value ([3]; substrate M3) of the same molecule?
Its value is 31.6%.

What about the “Composition (%) of products formed … M4” value ([3]; substrate M3) of the same molecule?
The value was 4.0%.

And the “Composition (%) of products formed … M5” value ([3]; substrate M3)?
Its value is 0.8%.

What about the “Composition (%) of products formed … M1” value ([3]; substrate M4) of the same molecule?
The value was 3.9%.

What about the “Composition (%) of products formed … M2” value ([3]; substrate M4) of the same molecule?
Its value is 55.5%.

And the “Composition (%) of products formed … M3” value ([3]; substrate M4)?
Its value is 28.8%.

What about the “Composition (%) of products formed … M4” value ([3]; substrate M4) of the same molecule?
The value was 9.9%.

And the “Composition (%) of products formed … M5” value ([3]; substrate M4)?
Its value is 1.9%.

What about the “Composition (%) of products formed … M1” value ([3]; substrate M5) of the same molecule?
Its value is 4.1%.

What about the “Composition (%) of products formed … M2” value ([3]; substrate M5) of the same molecule?
Its value is 46.9%.

And the “Composition (%) of products formed … M3” value ([3]; substrate M5)?
Its value is 21.8%.

What about the “Composition (%) of products formed … M4” value ([3]; substrate M5) of the same molecule?
The value was 16.6%.

What about the “Composition (%) of products formed … M5” value ([3]; substrate M5) of the same molecule?
The value was 7.9%.

And the “Composition (%) of products formed … M6” value ([3]; substrate M5)?
Its value is 2.8%.

And the “Composition (%) of products formed … M7” value ([3]; substrate M5)?
The value was 0.9%.
